# Results published in patent US20060257880A1, “Gastric and prostate cancer associated antigens” (THE NOTTINGHAM TRENT UNIVERSITY, priority 2003, published 2006).
# B1: T21: SEREX-identified cancer-testis antigen clone; cDNA encodes a putative 535 amino acid protein (SEQ. ID. 3) (protein, listed as Homo sapiens)
# chain: MSEAQSKNEIIAQEFLIKEAECRNADIELEHHRSQAEQNEFLSRELIEKERDLERSRTVIAKFQNKLKELVEENKQLEEGMKEILQAIKEMQKDPDVKGGETSLIIPSLERLVNAIESKNAEGIFDASLHLKAQVDQLTGRNEELRQELRESRKEAINYSQQLAKANLKIDHLEKETSLLRQSEGSNVVFKGIDLPDGIAPSSASIINSQNEYLIHLLQELENKEKKLKNLEDSLEDYNRKFAVIRHQQSLLYKEYLSEKETWKTESKTIKEEKRKLEDQVQQDAIKVKEYNNLLNALQMDSDEMKKILAENSRKITVLQVNEKSLIRQYTTLVELERQLRKENEKQKNELLSMEAEVCEKIGCLQRFKEMAIFKIAALQKVVDNSVSLSELELANKQYNELTAKYRDILQKDNMLVQRTSNLEHLECENISLKEQVESINKELEITKEKLHTIEQAWEQETKLGNESSMDKAKKSITNSDIVSISKKITMLEMKELNERQRAEHCQKMYEHLRTSLKQMEERNFELETKFAEV
# Legend:
# [1] = test system: prostate cancer patients' sera; experiment: Modified SEREX immunoscreening of T21 clone against prostate cancer patients' sera; type: binding, human; set-up: key to Sera reactivity: +: sera reactivity observed; −: no sera reactivity observed
# Excerpt: (§1) The SEREX approach allows an unbiased search for an antibody response and the direct molecular definition of immunogenic tumour proteins based on their reactivity with allogeneic patient sera. In this approach, a prokaryotically expressed cDNA library constructed from normal human testes was immunoscreened with absorbed and diluted patients' sera for the detection of tumour antigens that have elicited a high-titer immunoglobulin (Ig) G humoral response. Such a humoral response implies T-cell recognition of the detected antigens by helper T cells. […] The SEREX approach can then be modified and used to determine the reactivity of identified antigens with panels of human sera including prostate cancer patient sera and normal donor sera.
# (§2) The reactivity of promising positive clones against patient and normal donor serum was determined by immunoscreening the clones against and allogeneic panel of 10 prostate cancer patients' sera and 10 healthy donor patients' sera. The methodology used was the same as the SEREX methodology (described above) with the following modifications: The positive clone (T21) and a negative clone (blue phage) were plated out on a small LB agar plate at a ratio of 1:2 to give a titre of approximately 600 pfu/plate. The steps for detection of false positives, subcloning and retesting were not necessary. Following expression overnight, plaque expression and transferral of the plaques to nitrocellulose membranes, the nitrocellulose membranes were incubated with the individual serum and colour developed as described previously. The results would then be recorded simply as being positive (plaques visible) or negative (no plaques visible).
# (§3) Immune recognition of identified gene products in prostate cancer patients. To assess the frequency of antibody responses against T21 in sera from normal individuals and prostate cancer patients, 10 prostate cancer patient sera and 10 normal adult sera were screened using a modified immunoscreening procedure.
# [2] = test system: normal individual sera; experiment: Modified SEREX immunoscreening of T21 clone against normal individual sera; type: binding, human; set-up: key to Sera reactivity: +: sera reactivity observed; −: no sera reactivity observed
# Excerpt: as §1, §2, §3
molecule,measurement,setting,value
B1,Antibody response against T21 in sera (in words),[1]; 10 prostate cancer patient sera,reacted exclusively with allogeneic sera obtained from prostate cancer patients
same,"Sera reactivity, reactive sera / sera tested",[1]; panel of 10 prostate cancer patients sera,4/10
same,Sera reactivity,[1]; prostate cancer patient serum 27,+
same,Sera reactivity,[1]; prostate cancer patient serum 29,−
same,Sera reactivity,[1]; prostate cancer patient serum 32,−
same,Sera reactivity,[1]; prostate cancer patient serum 33,−
same,Sera reactivity,[1]; prostate cancer patient serum 34,+
same,Sera reactivity,[1]; prostate cancer patient serum 36,−
same,Sera reactivity,[1]; prostate cancer patient serum 37,−
same,Sera reactivity,[1]; prostate cancer patient serum 38,+
same,Sera reactivity,[1]; prostate cancer patient serum 39,+
same,Sera reactivity,[1]; prostate cancer patient serum 48,−
same,Antibody response against T21 in sera (in words),[2]; 10 normal adult sera,not with sera from healthy individuals
same,Sera reactivity,[2]; normal individual serum 1,−
same,Sera reactivity,[2]; normal individual serum 2,−
same,Sera reactivity,[2]; normal individual serum 3,−
same,Sera reactivity,[2]; normal individual serum 5,−
same,Sera reactivity,[2]; normal individual serum 12,−
same,Sera reactivity,[2]; normal individual serum 13,−
same,Sera reactivity,[2]; normal individual serum 14,−
same,Sera reactivity,[2]; normal individual serum 19,−
same,Sera reactivity,[2]; normal individual serum 20,−
same,Sera reactivity,[2]; normal individual serum 21,−
same,"Sera reactivity, reactive sera / sera tested",[2]; panel of 10 normal donor sera,0/10
